The text below walks through data of publication PMC7290940.

Common to all, as to assay: SEC; single purified protein on Superdex 200 10/300 GL, apparent mass against protein standards
The target in test [1] is full-length gp44 with C-terminal His6 tag (gp44–His), bacteriophage 80α (Staphylococcus aureus bacteriophage 80α).
Test [2] concerns the target gp44-NTD-His (gp44 residues 1–271) (Staphylococcus aureus bacteriophage 80α).
In test [3] the target is untagged CI immunity repressor of bacteriophage 80α (Staphylococcus aureus bacteriophage 80α).
The target in test [4] is untagged gp44 of bacteriophage 80α (Staphylococcus aureus bacteriophage 80α).

What is called stoichiometry N is a count of units in the complex or per binding partner. Take “full-length gp44 with C-terminal His6 tag (gp44–His), bacteriophage 80α (natural protein)”: in test [1], the stoichiometry N was 2.
In the case of “gp44-NTD-His (gp44 residues 1–271) (domain or fragment)”, in test [2], the stoichiometry N worked out at 2.
On to “untagged CI immunity repressor of bacteriophage 80α (natural protein)”, for which the stoichiometry N in test [3] came to 2.
Regarding “untagged gp44 of bacteriophage 80α (natural protein)”, the stoichiometry N in test [4] is 2.
